The chains are these.
B1: TPR t1 (parent)
chain: GACCAAUCUGCCCUCAGAGCUCGAGAACAUCUUCGGAUGCAGAGGAGGCAGGCUUCGGUGGCGCGAUAGCGCCAACGUCCUCAACCUCCAAUGCAUCCCACCACAUGAUGAUGCCUGAAGAGCCUUGGUUUUUUG

The values that follow come from the RNAGym collection of RNA variant scans (doi:10.1073/pnas.2313332121).

In the series the parent is B1. The series can be described thus: polymerase ribozyme fitness, log enrichment relative to wild type (log ratio); higher = more active; in vitro selection for triplet polymerase activity. A digest of the protocol: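 Fitness compares each genotype's enrichment to that of the wild type on a logarithmic scale, averaging replicates with inverse-variance weights. The logarithm is base 2. Enrichment came from Illumina sequencing of input and output libraries after one triplicate round of in vitro selection, which included frozen incubation at −7 °C, of PCR-built, transcribed mutant libraries of each subunit of a heterodimeric triplet polymerase ribozyme. Only genotypes with ≥10 input reads and ≥1 read per output were kept.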
With A37U G60C C62U, the “polymerase ribozyme fitness (log ratio)” value is -2.01.

In the case of U38A G120A, the “polymerase ribozyme fitness (log ratio)” value is -0.255. In the case of G35A C53G C62U G77C A84C C124G G135C it was -3.97; in that of A37G A121C, 2.11. Consider C34U A50U, for which the “polymerase ribozyme fitness (log ratio)” value was -3.8.

As to A37C G44A C53A G63C C124A, the “polymerase ribozyme fitness (log ratio)” value was -3.21.

Regarding C34U C40U G42A A43G C104A U109A G135A, the “polymerase ribozyme fitness (log ratio)” value was -4.93. Then G36A C73G C101A U106C, with -3.26; and G36A C53A U54G G120C, with 0.74. Take A37C G48C C53U U54A G60C C88A G93A C115U A121G: the “polymerase ribozyme fitness (log ratio)” value is -6.81. For A37C A46C C62U U78G, the “polymerase ribozyme fitness (log ratio)” value was -1.66.

Take A37G C76G G113A: the “polymerase ribozyme fitness (log ratio)” value is -1.57. In the case of A37C U38G it was -1.27; in that of A37C U54A C64U U109A, -6.92; in that of G36A C56A, -1.03.

Take A37C G63U G122U: the “polymerase ribozyme fitness (log ratio)” value was -2.81.

In the case of A37C, the “polymerase ribozyme fitness (log ratio)” value is -0.431. Consider A37U, for which the “polymerase ribozyme fitness (log ratio)” value was -0.355. In the case of A37G it was -0.185; in that of A37U A50C G63U C79A C80G G107U G117C, -6.62; in that of A37G C114A, -1.28. Consider G36C G47A C56A G71A U78G C115U A118G, for which the “polymerase ribozyme fitness (log ratio)” value was -6.68.

On to G36U G47C G117U, for which the “polymerase ribozyme fitness (log ratio)” value was -6.43.

Turning to G36U U112G, the “polymerase ribozyme fitness (log ratio)” value was -1.32. Regarding A37U C76U, the “polymerase ribozyme fitness (log ratio)” value was -0.3. Then A37U G69A, with -3.01; and A37U A50U G52A, with -2.94. In the case of A37U A43C G71U C79U U112A U116G U134C it was -6.04; in that of G36C G48A G60C G61C, -3.64; in that of G36A C124U, 0.816. Then A37G G60A C102U, with -3.61. Take A37G G69U C99A C114A: the “polymerase ribozyme fitness (log ratio)” value is -3.09.

Take A37U G52U G69C: the “polymerase ribozyme fitness (log ratio)” value is -2.07.

For the variant G35A G113A, the “polymerase ribozyme fitness (log ratio)” value was -4.16. Then G35A G69U C101G, with -2.83; and G36A C88G, with -2.65; and G36A C88A, with -1.76. Then A37U G69U U125C, with -3.4; and C34U A83C, with -5.74. In the case of C34G G69U it was -2.21.

As to G35A G39A C70U C72U U109G C124U, the “polymerase ribozyme fitness (log ratio)” value is -7.05. In the case of C34U G63U it was -4.85; in that of C34U G63A, -3.64.

Take C34U C101A: the “polymerase ribozyme fitness (log ratio)” value was -4.07. Turning to G36U G60U A111U, the “polymerase ribozyme fitness (log ratio)” value is -2.87. In the case of G36U C102A C123U it was -2.11; in that of C34U C64U, -3.93; in that of C34U U92A, -6.09. On to G36U C72G C124U, for which the “polymerase ribozyme fitness (log ratio)” value is -0.0425. In the case of G36C A46G G63U C85U C114U it was -5.92. Then G36C U78G, with -1.1. In the case of G36A U125A it was -1.27. Regarding A37C A103C, the “polymerase ribozyme fitness (log ratio)” value is -4.98. In the case of C34G G60A C70A A105U G117U U126A U129A U133G it was -6.69; in that of G36U C53U G61A U96G, -2.34; in that of G36A G44A G77U A84U, -2.98.

In the case of A37U C88U C101G C115G, the “polymerase ribozyme fitness (log ratio)” value was -3.98. Then A37U G39A, with -1.34; and G36U U96A, with -2.69; and G35A C40G C98U C123G, with -0.89. Take A37U A46U C64U C115A: the “polymerase ribozyme fitness (log ratio)” value is -3.03. On to A37U G58C A75U C80U G93A C97A, for which the “polymerase ribozyme fitness (log ratio)” value was -6.83.

In the case of G35A C73U U78G A90G C115G A121C, the “polymerase ribozyme fitness (log ratio)” value is -5.51.

As to G36U A83C C104U U106G, the “polymerase ribozyme fitness (log ratio)” value was -3.91.

As for G36U G61A, the “polymerase ribozyme fitness (log ratio)” value is -1.47.

A37U G47A A68G C80A: the “polymerase ribozyme fitness (log ratio)” value was -6.59. Take G36A U59A C89G: the “polymerase ribozyme fitness (log ratio)” value was -3.6.

With A37U U106C, the “polymerase ribozyme fitness (log ratio)” value was -0.686. For the variant A37G C53A C56A A90U A91C G113C, the “polymerase ribozyme fitness (log ratio)” value was -2.55. As for C34G C79U, the “polymerase ribozyme fitness (log ratio)” value is -5.43. In the case of G36C U55A U131A it was -0.527; in that of C34G G51U C104U, -6.64. Consider A37U G69C U112A G128U, for which the “polymerase ribozyme fitness (log ratio)” value was -4.19. In the case of G36A C97G U112G C115U it was -5.56; in that of G36A G60C U78C C79U C85A A90G, -3.89; in that of A37G G44C, -0.927.

For the variant G35A G69C U87G, the “polymerase ribozyme fitness (log ratio)” value is -5.37. Then G36U C72G, with -1.68; and G36U G63A C97U, with -1.35; and C34U G113C, with -4.95.

With C34U C85A A111U, the “polymerase ribozyme fitness (log ratio)” value is -5.33. On to A37C C104A, for which the “polymerase ribozyme fitness (log ratio)” value was -1.22. In the case of A37U G48A G61C U116A it was -4.18. For the variant C34U G120A U130A, the “polymerase ribozyme fitness (log ratio)” value is -4.02. In the case of C34U C114U U131A it was -4.04; in that of G36A C97U, -0.157. On to C34U U125A, for which the “polymerase ribozyme fitness (log ratio)” value was -4.8. Then A37U G44C C53G U55C G61A C89U G117C, with -4.88.

Consider G35U G71U, for which the “polymerase ribozyme fitness (log ratio)” value is -5.03.

On to A37C G44A A46C G47U U59C, for which the “polymerase ribozyme fitness (log ratio)” value is -6.19. In the case of G36C G42U C56G A74C G107U U112A C114A, the “polymerase ribozyme fitness (log ratio)” value is -7.54. U38A C101U G117C: the “polymerase ribozyme fitness (log ratio)” value was -4.18. In the case of A37C A91G it was -2.03; in that of C34U C53U C56U, -5.01; in that of A37G C49A, -0.708.

As to A37U G60A C101U, the “polymerase ribozyme fitness (log ratio)” value is -0.477.

For G36U C40U A43C A46U G48C, the “polymerase ribozyme fitness (log ratio)” value is -5.24.

With C34G C70U U96A A103U A121C U132C, the “polymerase ribozyme fitness (log ratio)” value is -7.51. As to C34G C99U U130A, the “polymerase ribozyme fitness (log ratio)” value was -4.6. Consider G35C U38G G63C C123A U129A, for which the “polymerase ribozyme fitness (log ratio)” value was -5.52. C34G C53U G60A U87G G110C: the “polymerase ribozyme fitness (log ratio)” value is -7.9. Turning to G36U A111U, the “polymerase ribozyme fitness (log ratio)” value was -3.05.

Consider G35U G77C C123G, for which the “polymerase ribozyme fitness (log ratio)” value was -5.04. Take A37U A90C U96A: the “polymerase ribozyme fitness (log ratio)” value is -0.653.

In the case of G36A G77C, the “polymerase ribozyme fitness (log ratio)” value is -1.72.

On to G36U C56U C115G, for which the “polymerase ribozyme fitness (log ratio)” value is -3.57.

Regarding G36A G71U U78A, the “polymerase ribozyme fitness (log ratio)” value was -1.53.

In the case of A37C C56G C101A G110U G127U, the “polymerase ribozyme fitness (log ratio)” value was -4.67. Then G36U C56A, with -1.83; and G36A G48U G63U C79G, with -5.18.

Turning to A37G C72G C73U A74U, the “polymerase ribozyme fitness (log ratio)” value is -6.02. Then G35U A100U, with -5.66. For U38A U96G U112A G128A, the “polymerase ribozyme fitness (log ratio)” value is -2.89. In the case of G36A C98U it was -3.49; in that of G36U C40A, -3.53; in that of G35C G63A C73A, -5.71. In the case of G35C G63U A74U A90G C123G G127C it was -6.64. For G36C G69A G71A U81G C88A G93C C99A C123U, the “polymerase ribozyme fitness (log ratio)” value was -6.5. Then A37G G113C G135A, with -2.17; and G35U U112A, with -2.86. In the case of C34U C72U U106A it was -4.34; in that of G36U U81A, -2.11; in that of G35C C79U C104A C124A, -5.25.

With G36U U55G C89G G113U, the “polymerase ribozyme fitness (log ratio)” value is -4.27. Then G36U G52A C97U G110A, with -2.04.

Take A37U A50G G52A A111G G117A: the “polymerase ribozyme fitness (log ratio)” value was -2.93. Consider G35A A37U U87G, for which the “polymerase ribozyme fitness (log ratio)” value was -5.66.

Consider A37G C89A C102A C124U, for which the “polymerase ribozyme fitness (log ratio)” value is -3.6. Then A37C A83U, with -0.456. Then C34U C56U, with -4.1; and C34U C86U C104U C114U, with -4.34. Then A37G C73G U109A, with -7.2; and G36C C88A, with -2.1. With A37G G117C, the “polymerase ribozyme fitness (log ratio)” value was -2.52. For the variant G36C U59A G69C C88A C101A, the “polymerase ribozyme fitness (log ratio)” value is -2.89. In the case of G36U C53G C56A C72G it was -3.23; in that of G36A G71A C94A, -5.5. In the case of C34U G47A it was -4.25; in that of A37G G69U, -1.08. In the case of G36U G63U C80U A84C it was -4.1; in that of A37U G61U G120C, 0.718; in that of A37G C88A G113U, -5.31. On to G36U U78G A105C, for which the “polymerase ribozyme fitness (log ratio)” value is -3.65. Then A37U G69A G77A A90U C123U, with -5.05; and G36A G69A C73G G120A, with -5.29. Then A37U C40A G69C U130A, with -3.51. As to A37U A46U, the “polymerase ribozyme fitness (log ratio)” value is -2.98. As to G35C A46C C97U, the “polymerase ribozyme fitness (log ratio)” value was -6.04. In the case of G36U C123U it was 0.205; in that of A37C G71U C101A G127C, -2.36; in that of G36A G61U, 0.0512. Then C34U U87A, with -4.77. In the case of A37U G52A C56A G110C A118U it was -5.47; in that of A37U C99U, -2.37. C34G U87A: the “polymerase ribozyme fitness (log ratio)” value is -5.65.

With A37C U55C, the “polymerase ribozyme fitness (log ratio)” value was -1.17. Then A37C C64U C115G, with -1.35; and A37U G51U G77A A91U, with -6.95; and A37G A83C C88G U130G, with -4.95. In the case of G36U G51C G69U it was -2.55; in that of G36U G47U, -2.97. Turning to A37U G48A G61C A105U A111U, the “polymerase ribozyme fitness (log ratio)” value is -6.69.

Consider G35U G69A, for which the “polymerase ribozyme fitness (log ratio)” value is -7.16. Turning to G35U G69U C123A C124A, the “polymerase ribozyme fitness (log ratio)” value is -1. Take C34U G110U: the “polymerase ribozyme fitness (log ratio)” value is -4.07.

Consider A37U A50G, for which the “polymerase ribozyme fitness (log ratio)” value was -0.867.

As for G35C A95U, the “polymerase ribozyme fitness (log ratio)” value was -4.31.
